Results as given in patent US20230056336A1 (KYVERNA THERAPEUTICS, published 2023).
Numbering of substitutions follows the chain as printed. Names may count otherwise.

B1: CD25 L2F mutant (CD25-Fc) (Fc fusion)
chain: EFCDDDPPEIPHATFKAMAYKEGTMLNCECKRGFRRIKSGSLYMLCTGNSSHSSWDNQCQCTSSATRNTTKQVTPQPEEQKERKTTEMQSPMQPVDQASLPGHCREPPPWENEATERIYHFVVGQMVYYQCVQGYRALHRGPAESVCKMTHGKTRWTQPQLICTGEMETSQFPGEEKPQASPEGRPESETSCLVTTTDFQIQTEMAATMETSIFTTEYQ
notes: not shown: Fc part of CD25-Fc
B2: CD25 T47D mutant (CD25-Fc) (Fc fusion)
chain: B1 chain with F2L, T47D
notes: not shown: Fc part of CD25-Fc
B3: CD25 S41E mutant (CD25-Fc) (Fc fusion)
chain: B1 chain with F2L, S41E
notes: not shown: Fc part of CD25-Fc
B4: CD25 T47S mutant (CD25-Fc) (Fc fusion)
chain: B1 chain with F2L, T47S
notes: not shown: Fc part of CD25-Fc
B5: CD25 L42G mutant (CD25-Fc) (Fc fusion)
chain: B1 chain with F2L, L42G
notes: not shown: Fc part of CD25-Fc
B6: CD25 L2Y mutant (CD25-Fc) (Fc fusion)
chain: B1 chain with F2Y
notes: not shown: Fc part of CD25-Fc
B7: CD25 L2I mutant (CD25-Fc) (Fc fusion)
chain: B1 chain with F2I
notes: not shown: Fc part of CD25-Fc
B8: CD25 L42V mutant (CD25-Fc) (Fc fusion)
chain: B1 chain with F2L, L42V
notes: not shown: Fc part of CD25-Fc
B9: CD25 L42W mutant (CD25-Fc) (Fc fusion)
chain: B1 chain with F2L, L42W
notes: not shown: Fc part of CD25-Fc
B10: CD25 S41N mutant (CD25-Fc) (Fc fusion)
chain: B1 chain with F2L, S41N
notes: not shown: Fc part of CD25-Fc
B11: CD25 Y43R mutant (CD25-Fc) (Fc fusion)
chain: B1 chain with F2L, Y43R
notes: not shown: Fc part of CD25-Fc
B12: CD25 L42Y mutant (CD25-Fc) (Fc fusion)
chain: B1 chain with F2L, L42Y
notes: not shown: Fc part of CD25-Fc
B13: CD25 S41Q mutant (CD25-Fc) (Fc fusion)
chain: B1 chain with F2L, S41Q
notes: not shown: Fc part of CD25-Fc
B14: CD25 L42A mutant (CD25-Fc) (Fc fusion)
chain: B1 chain with F2L, L42A
notes: not shown: Fc part of CD25-Fc
B15: CD25 T47N mutant (CD25-Fc) (Fc fusion)
chain: B1 chain with F2L, T47N
notes: not shown: Fc part of CD25-Fc
B16: CD25 S41D mutant (CD25-Fc) (Fc fusion)
chain: B1 chain with F2L, S41D
notes: not shown: Fc part of CD25-Fc
B17: CD25 L42I mutant (CD25-Fc) (Fc fusion)
chain: B1 chain with F2L, L42I
notes: not shown: Fc part of CD25-Fc
B18: CD25 L42F mutant (CD25-Fc) (Fc fusion)
chain: B1 chain with F2L, L42F
notes: not shown: Fc part of CD25-Fc

Target: T1, basiliximab fab
T1 construct: The assay used a Fab of basiliximab; Chimeric antibody: human IgG1 constant, mouse variable domains
Assay: BLI; CD25-Fc on anti-hFc biosensor, basiliximab Fab in solution; global 1:1 fit;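 also: biolayer interferometry signals normalized against a reference probe and smoothed with a Savitzky-Golay filter before the global fit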
Protocol: Briefly, binding affinity (KD) of CD25 mutants from Table 1 was measured using biolayer interferometry. […] Experimental data was normalized to a reference probe and high-frequency noise was removed by Savitzky-Golay filtering. On and off-rate constants were determined using a globally fitted 1:1 binding model.

T1 sequence (VH, as listed by the source limits assumed, chain 1 of 2): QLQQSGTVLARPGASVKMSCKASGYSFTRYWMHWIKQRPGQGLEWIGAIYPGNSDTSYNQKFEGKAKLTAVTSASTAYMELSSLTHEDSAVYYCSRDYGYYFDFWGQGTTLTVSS
T1 sequence (VL, as listed by the source limits assumed, chain 2 of 2): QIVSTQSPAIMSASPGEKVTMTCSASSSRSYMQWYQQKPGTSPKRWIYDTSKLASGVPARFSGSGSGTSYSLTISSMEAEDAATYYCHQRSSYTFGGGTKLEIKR

Kd	koff	kon	Binder
1.07 nM	0.00252 s⁻¹	2.36e+06 M⁻¹ s⁻¹	B1
3.66 nM	0.00787 s⁻¹	2.15e+06 M⁻¹ s⁻¹	B2
6.08 nM	0.00719 s⁻¹	1.18e+06 M⁻¹ s⁻¹	B3
4.49 nM	0.00588 s⁻¹	1.31e+06 M⁻¹ s⁻¹	B4
1.14 nM	0.000152 s⁻¹	133000 M⁻¹ s⁻¹	B5
1.51 nM	0.00263 s⁻¹	1.75e+06 M⁻¹ s⁻¹	B6
3.46 nM	0.000734 s⁻¹	212000 M⁻¹ s⁻¹	B7
3.93 nM	0.000748 s⁻¹	190000 M⁻¹ s⁻¹	B8
1.04 nM	0.000201 s⁻¹	194000 M⁻¹ s⁻¹	B9
3.85 nM	0.00707 s⁻¹	1.84e+06 M⁻¹ s⁻¹	B10
1.39 nM	0.000399 s⁻¹	236000 M⁻¹ s⁻¹	B11
1.75 nM	0.000325 s⁻¹	186000 M⁻¹ s⁻¹	B12
5.25 nM	0.00512 s⁻¹	975000 M⁻¹ s⁻¹	B13
0.242 nM	2.49e-05 s⁻¹	103000 M⁻¹ s⁻¹	B14
12.8 nM	0.00776 s⁻¹	608000 M⁻¹ s⁻¹	B15
6.49 nM	0.00708 s⁻¹	1.09e+06 M⁻¹ s⁻¹	B16
23.3 nM	0.0116 s⁻¹	499000 M⁻¹ s⁻¹	B17
7.65 nM	0.000772 s⁻¹	101000 M⁻¹ s⁻¹	B18
